Measurements reported in patent publication US20260070974A1 (NONA BIOSCIENCES SUZHOU, published 2026).

B1: PR301286-1 (antibody, human IgG1, kappa, V domains shown)
VH: QVQLVESGGGVVQPGKSLRLSCAASGFTFSSYGMHWVRQAPGKGLEWVAVIWIDASNRYYAASVKGRFTISRDNSKNTLYLQMNSLRAEDTAVYYCTRGYGDYAYVMDVWGQGASVTVSS
VL: DIVMTQSPLSLPVTPGEPASISCRSSQSLLPGNGYNYLDWYLQKPGQSPQLLIYLGSNRASGVPDRFSGSGSGTDFTLKISRVEAEDVGIYYCMQALQSPLTFGGGTKVEIKR
notes: PTM variant of PR301286: VH(HCDR2) G/A; human IgG1/kappa
B2: PR301286-3 (antibody, human IgG1, kappa, V domains shown)
VH: QVQLVESGGGVVQPGKSLRLSCAASGFTFSSYGMHWVRQAPGKGLEWVAVIWIDVSNRYYAASVKGRFTISRDNSKNTLYLQMNSLRAEDTAVYYCTRGYGDYAYVMDVWGQGASVTVSS
VL: DIVMTQSPLSLPVTPGEPASISCRSSQSLLPGNGYNYLDWYLQKPGQSPQLLIYLGSNRASGVPDRFSGSGSGTDFTLKISRVEAEDVGIYYCMQALQSPLTFGGGTKVEIKR
notes: PTM variant of PR301286: VH(HCDR2) G/V; human IgG1/kappa
B3: PR301286-5 (antibody, human IgG1, kappa, V domains shown)
VH: QVQLVESGGGVVQPGKSLRLSCAASGFTFSSYGMHWVRQAPGKGLEWVAVIWIDASNRYYAASVKGRFTISRDNSKNTLYLQMNSLRAEDTAVYYCTRGYGDYAYVMDVWGQGASVTVSS
VL: DIVMTQSPLSLPVTPGEPASISCRSSQSLLPGSGYNYLDWYLQKPGQSPQLLIYLGSNRASGVPDRFSGSGSGTDFTLKISRVEAEDVGIYYCMQALQSPLTFGGGTKVEIKR
notes: PTM variant of PR301286: VH(HCDR2) G/A; VL(LCDR1) N/S; human IgG1/kappa
B4: PR301286-6 (antibody, human IgG1, kappa, V domains shown)
VH: QVQLVESGGGVVQPGKSLRLSCAASGFTFSSYGMHWVRQAPGKGLEWVAVIWIDASNRYYAASVKGRFTISRDNSKNTLYLQMNSLRAEDTAVYYCTRGYGDYAYVMDVWGQGASVTVSS
VL: DIVMTQSPLSLPVTPGEPASISCRSSQSLLPGNAYNYLDWYLQKPGQSPQLLIYLGSNRASGVPDRFSGSGSGTDFTLKISRVEAEDVGIYYCMQALQSPLTFGGGTKVEIKR
notes: PTM variant of PR301286: VH(HCDR2) G/A; VL(LCDR1) G/A; human IgG1/kappa
B5: PR301286-7 (antibody, human IgG1, kappa, V domains shown)
VH: QVQLVESGGGVVQPGKSLRLSCAASGFTFSSYGMHWVRQAPGKGLEWVAVIWIDASNRYYAASVKGRFTISRDNSKNTLYLQMNSLRAEDTAVYYCTRGYGDYAYVMDVWGQGASVTVSS
VL: DIVMTQSPLSLPVTPGEPASISCRSSQSLLPGNTYNYLDWYLQKPGQSPQLLIYLGSNRASGVPDRFSGSGSGTDFTLKISRVEAEDVGIYYCMQALQSPLTFGGGTKVEIKR
notes: PTM variant of PR301286: VH(HCDR2) G/A; VL(LCDR1) G/T; human IgG1/kappa
B6: PR301289-1 (antibody, human IgG1, kappa, V domains shown)
VH: QVQLVQSGAEVKKPGASVKVSCRASGYTFTSYDINWVRQATGQGLEWMGWMNPHSGDTGYAQNFQGRVTMTWQTSISTAYMELSSLRSEDTAVYYCARRRVGVYYYGMDVWGQGTTVTVSS
VL: ENVLTQSPGTLSLSPGERATLSCRASQSVSSSYFGWYQQKPGQAPRLLIYGASSRATGIPDRFSGSGSGTDFTLTISRLEPEDFAVYYCQQYGSSPITFGQGTRLEIKR
notes: PTM variant of PR301289: HFR3 N/Q; human IgG1/kappa
B7: PR301289-2 (antibody, human IgG1, kappa, V domains shown)
VH: QVQLVQSGAEVKKPGASVKVSCRASGYTFTSYDINWVRQATGQGLEWMGWMNPHSGDTGYAQNFQGRVTMTWQTSISTAYMELSSLRSEDTAVYYCARRRVGVYYHGMDVWGQGTTVTVSS
VL: ENVLTQSPGTLSLSPGERATLSCRASQSVSSSYFGWYQQKPGQAPRLLIYGASSRATGIPDRFSGSGSGTDFTLTISRLEPEDFAVYYCQQYGSSPITFGQGTRLEIKR
notes: PTM variant of PR301289: HFR3 N/Q; CDRH3 YYY/YYH; human IgG1/kappa
B8: PR300679 (antibody, human IgG1, kappa, V domains shown)
VH: QVQLQESGPGLVKPSGTLSLTCAVSGGSISSSNWWSWVRQPPGKGLEWIGEIYHSGSTNYNPSLKSRVTISVDKSKNQFSLKLSSVTAADTAVYYCAREYSSSWLSVMDAWGQGASVTVSS
VL: not shown

Assays:
[1] = target: T1, human Siglec-15 ECD-his protein (Acrobiosystems, Cat #: SG5-H52H3) (human, UniProt Q6ZMC9 20-263); assay: ELISA, coated human Siglec-15 ECD-his
T1 construct: Bought protein; only its extracellular domain stood in the assay; also called human Siglec-15 protein; recombinant human Siglec-15 protein; not shown: his tag
T1 sequence: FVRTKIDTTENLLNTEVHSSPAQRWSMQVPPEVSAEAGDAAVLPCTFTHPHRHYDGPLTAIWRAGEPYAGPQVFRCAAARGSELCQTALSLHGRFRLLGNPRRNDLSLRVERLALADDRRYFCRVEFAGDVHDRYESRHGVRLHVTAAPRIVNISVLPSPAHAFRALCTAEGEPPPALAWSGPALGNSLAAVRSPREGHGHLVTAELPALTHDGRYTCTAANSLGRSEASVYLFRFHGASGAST
Protocol: […] human Siglec-15 ECD-his protein (Acrobiosystems, Cat #: SG5-H52H3) dissolved in PBS was added to an ELISA plate at 100 μL/well for coating and the plate was incubated overnight at 4° C. The ELISA plate was then blocked with PBST (PBS+0.05% Tween 20) containing 2% BSA at 200 μL/well and incubated at 37° C. for 1 h. The ELISA plate was washed 4 times with PBST. The anti-Siglec-15 antibody diluted in a gradient (5-fold dilution, starting concentration: 6.67 nM) was added to the ELISA plate at 100 μL/well and the plate was incubated at 37° C. for 1 h. The ELISA plate was washed 4 times with PBST. The goat anti-human IgG (H+L)-HRP (1:5000, Jackson, Cat #: 109-035-088) was added at 100 μL/well and the plate was incubated at 37° C. for 1 h. The ELISA plate was washed 4 times with PBST. The TMB substrate (Biopanda, Cat #: TMB-S-003) was added at 100 μL/well, and the plate was incubated at room temperature for 5 min, and then the stop buffer (Solarbio, Cat #: C1058) was added at 100 μL/well to stop the reaction.

[2] = target: T1, human Siglec-15 ECD-his protein …; assay: BLI (Octet RED96), antibody on AHC sensor, Siglec-15 ECD-his as analyte
Protocol: Recombinant Human Siglec-15 Protein Affinity was determined using an Octet RED96 instrument (ForteBio) and an anti-human IgG Fc capture sensor (AHC biosensor, ForteBio, Cat #: 18-5060) according to the detailed procedures and methods provided by the manufacturer. Specifically, candidate antibodies were each diluted to a final concentration of 6 µg/mL and directly immobilized on AHC biosensors for kinetic measurements. The antigenic protein Siglec-15 ECD-his protein (Acrobiosystems, Cat #: SG5-H52H3) was diluted with 10× Kinetics buffer to 3 concentrations of 60 nM, 30 nM, and 15 nM separately and injected as the analyte for 120 s with a dissociation time of 400 s and then subjected to regeneration with 10 mM glycine HCl (pH 1.5) for 15 s. The association rate (kon) and dissociation rate (kdis) were calculated using a simple one-to-one Languir binding model (Octet Red96 data analysis software). The equilibrium dissociation constant (kD) was calculated as the ratio of kdis/kon.

[3] = target: T2, cynomolgus monkey Siglec-15 on CHO-K1/cynomolgus monkey Siglec-15 cells (cynomolgus monkey, UniProt Q6ZMC9 20-328 (human entry)); assay: flow cytometry on CHO-K1/cynomolgus monkey Siglec-15 cells
T2 chain: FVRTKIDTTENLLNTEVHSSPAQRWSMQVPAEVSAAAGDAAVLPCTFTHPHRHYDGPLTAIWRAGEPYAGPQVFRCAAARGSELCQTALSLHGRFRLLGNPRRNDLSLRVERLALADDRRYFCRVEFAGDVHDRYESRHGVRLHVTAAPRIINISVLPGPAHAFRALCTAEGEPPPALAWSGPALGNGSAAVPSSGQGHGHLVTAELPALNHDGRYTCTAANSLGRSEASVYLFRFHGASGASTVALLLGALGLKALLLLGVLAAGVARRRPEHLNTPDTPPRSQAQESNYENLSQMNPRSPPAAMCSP
Protocol: cDNAs encoding cynomolgus monkey Siglec-15 (the amino acid sequence of which is set forth in SEQ ID NO: 155) were obtained by gene synthesis and cloned into the expression vector pcDNA3.1, and then the expression vector was transfected into CHO-K1 cells to construct CHO-K1/cynomolgus monkey Siglec-15 cells expressing cynomolgus monkey Siglec-15. CHO-K1/cynomolgus monkey Siglec-15 cells were adjusted to a density of 1×10⁶/mL with PBS, and the cell suspension was added to a 96-well V-bottom plate at 100 µL/well. The 96-well V-bottom plate was centrifuged at 1000 rpm for 5 min and washed once with PBS+2% FBS. The cells were resuspended in 100 μL of antibody diluted in a gradient (5-fold dilution, starting concentration: 500 nM) and incubated at 4° C. for 1 h, and PR300066 and hIgG1 were used as positive control and negative control, respectively. After 1 h, the cells were washed twice with PBS+2% FBS. The cells were incubated with 100 μL of Alexa Fluor 488 goat anti-human IgG (Jackson, Cat #: 109-545-098) at 4° C. for 1 h in the dark and then washed twice with PBS+2% FBS. The cells were then resuspended in 200 μL of PBS+2% FBS. The fluorescence intensity of the cells was analyzed using a BD FACS Canto™ II flow cytometer.

[4] = target: T3, human Siglec-15 on CHO-K1/human Siglec-15 cells (KYinno, Beijing) (human, UniProt Q6ZMC9 20-328); assay: flow cytometry on CHO-K1/human Siglec-15 cells
T3 sequence: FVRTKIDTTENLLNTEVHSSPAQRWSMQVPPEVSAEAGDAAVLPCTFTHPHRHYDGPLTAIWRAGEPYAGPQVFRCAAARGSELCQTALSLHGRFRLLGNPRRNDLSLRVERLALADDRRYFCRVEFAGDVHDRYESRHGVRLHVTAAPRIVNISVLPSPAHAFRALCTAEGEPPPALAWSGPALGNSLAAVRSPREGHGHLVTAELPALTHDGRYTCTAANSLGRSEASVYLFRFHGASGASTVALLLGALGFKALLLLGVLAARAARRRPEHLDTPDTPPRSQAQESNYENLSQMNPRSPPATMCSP
Protocol: CHO-K1/human Siglec-15 cells (KYinno, Beijing) were adjusted to a density of 1×10⁶/mL with PBS, and the cell suspension was added to a 96-well V-bottom plate at 100 μL/well. The 96-well V-bottom plate was centrifuged at 1000 rpm for 5 min and washed once with PBS+2% FBS. The cells were resuspended in […] of antibody diluted in a gradient (5-fold dilution, starting concentration: 500 nM) and incubated at 4° C. for 1 h, and PR300066 and hIgG1 were used as positive control and negative control, respectively. After 1 h, the cells were washed twice with PBS+2% FBS. The cells were incubated with 100 μL of Alexa Fluor 488 goat anti-human IgG (Jackson, Cat #: 109-545-098) at 4° C. for 1 h in the dark and then washed twice with PBS+2% FBS. The cells were then resuspended in 200 μL of PBS+2% FBS. The fluorescence intensity of the cells was analyzed using a BD FACSCanto™ II flow cytometer.

Binder	EC50 [1] [pM]	Kd [2] [pM]	koff [2] [s⁻¹]	kon [2] [M⁻¹ s⁻¹]	EC50 [3] [pM]	Maximum (MFI) [3] [MFI]	EC50 [4] [pM]	Maximum (MFI) [4] [MFI]
B1	19	16.2	3.85e-06	238000	–	–	–	–
B2	19	195	6.44e-05	330000	–	–	–	–
B3	20	137	4.93e-05	360000	5260	4280	1820	24400
B4	29	279	0.000107	384000	–	–	–	–
B5	25	361	0.000137	379000	–	–	–	–
B6	20	116	3.89e-05	337000	–	–	–	–
B7	29	190	5.96e-05	314000	1340	4420	1260	28800
B8	–	106	0.000102	968000	–	–	1030	25300
